In PMC6858323, “Multiple conformations facilitate PilT function in the type IV pilus” (Nature Communications, 2019):

What was measured:
[1] = biological target: PilT4 from Geobacter metallireducens (PilT^Gm) (Geobacter metallireducens GS-15); experiment: crystal structure; PilT^Gm with 2 mM ATP and 2 mM MgCl2; 9% PEG4000, 100 mM MES pH 6, 200 mM MgCl2; 20 °C; 1.9 Å; CCCCCC conformation
[2] = biological target: PilT4 from Geobacter metallireducens (PilT^Gm) (Geobacter metallireducens GS-15); experiment: cryo-EM structure; PilT^Gm 0.5 mg/ml incubated 10 min at 4 °C with 1 mM MgCl2 plus 1 mM ATP; 4.4 Å map, CCCCCC conformation; 2D class averages also with 1 mM ATP plus 0.1 or 1 mM ADP
[3] = biological target: PilT4 from Geobacter metallireducens (PilT^Gm) (Geobacter metallireducens GS-15); experiment: crystal structure; PilT^Gm with 2 mM ANP and 2 mM MgCl2; 2% benzamidine-HCl, 100 mM HEPES-HCl pH 7.9, 200 mM ammonium acetate, 17.5% PEG3350; 20 °C; anisotropic 4.1, 6.7 and 4.0 Å; CCOCCO conformation
[4] = biological target: PilT4 from Geobacter metallireducens (PilT^Gm) (Geobacter metallireducens GS-15); experiment: cryo-EM structure; PilT^Gm 0.5 mg/ml without added nucleotide, 4 °C; untilted 2D class averages and 40° tilted 3D maps (OCOCOC 4.0 Å, OOCOOC 4.1 Å); 2D class averages also with 1 mM MgCl2 plus 0.1 or 1 mM ADP
[5] = biological target: PilT4 from Geobacter metallireducens (PilT^Gm) (Geobacter metallireducens GS-15); experiment: crystal structure; PilT^Gm without added nucleotide (partial-occupancy ADP, pH 7.1, 3.0 Å) or preincubated with Mg2+ and ATP and unbound nucleotide removed (full-occupancy ADP, pH 7.6); 11.5% PEG3350, 200 mM L-proline, 100 mM HEPES; 20 °C; OCOCOC conformation, pseudo-C3
[6] = biological target: reductively methylated PilT4 from Geobacter metallireducens (methylated PilT^Gm) (Geobacter metallireducens GS-15); experiment: crystal structure; methylated PilT^Gm, no added nucleotide; vapor diffusion 20 °C; 200 mM ammonium sulfate, 100 mM Bis-Tris-HCl pH 6.5, 25% PEG3350; 3.3 Å; OCOCOC conformation
[7] = biological target: PilB from Geobacter metallireducens (PilB^Gm) (Geobacter metallireducens); experiment: cryo-EM structure; PilB^Gm 0.6 mg/ml without added nucleotide, 4 °C; 2D class averages and 7.8 Å 3D map, CCOCCO conformation

## PilT4 from Geobacter metallireducens (PilT^Gm) (enzyme)
[1]
  stoichiometry N: 6
[2]
  stoichiometry N: 6
[3]
  stoichiometry N: 6
[4]
  stoichiometry N: 6
[5]
  stoichiometry N: 6

## reductively methylated PilT4 from Geobacter metallireducens (methylated PilT^Gm) (enzyme)
[6]
  stoichiometry N: 6

## PilB from Geobacter metallireducens (PilB^Gm) (enzyme)
[7]
  stoichiometry N: 6
